The text below walks through data of patent US20230257454A1 (STAIDSON BEIJING BIOPHARMACEUTICALS, published 2023).

Read-outs that look alike come from different tables or passages of the source.

Assay [1] deals with T1, human C5a (source not stated) (human, UniProt P01031 678-751).
T1 sequence: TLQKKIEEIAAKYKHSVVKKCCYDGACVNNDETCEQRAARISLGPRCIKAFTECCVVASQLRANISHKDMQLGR
The assay is described as follows: cell-based or functional assay.

Another assay deals with T2, human recombinant C5a (human, UniProt P01031 678-751).
T2 construct: Full-length human C5a; also called rC5a; human C5a
T2 sequence: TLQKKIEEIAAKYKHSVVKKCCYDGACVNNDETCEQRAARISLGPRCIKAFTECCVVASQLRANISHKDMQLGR
The assay can be described thus: ELISA, plate coated with human rC5a, scFv titrated, OD410.

Assay [2] has as its target T1, human C5a (source not stated). The assay can be described thus: cell-based or functional assay. This is another data set of the same source.
The target of assay [3] is T3, C5a-T33A.
T3 single chain: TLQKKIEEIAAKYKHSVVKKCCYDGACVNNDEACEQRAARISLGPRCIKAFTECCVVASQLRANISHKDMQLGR
The assay is described as follows: ELISA on the coated C5a protein, antibody titrated, OD410. (In an ELISA, binding on a coated surface is turned into a signal by an enzyme label.)

The next assay has as its target T4, C5a-E32A.
T4 single chain: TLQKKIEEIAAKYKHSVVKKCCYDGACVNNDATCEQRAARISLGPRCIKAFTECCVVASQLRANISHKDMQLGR
Described as above.

For assay [4], the target named is T5, C5a-R40A.
T5 single chain: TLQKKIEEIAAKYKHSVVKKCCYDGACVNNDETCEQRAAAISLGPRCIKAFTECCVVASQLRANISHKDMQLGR
The assay is described as above.

Assay [5] addresses T6, C5a-Q36A.
T6 single chain: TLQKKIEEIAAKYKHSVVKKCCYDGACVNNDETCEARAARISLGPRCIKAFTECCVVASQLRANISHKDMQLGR
Described as above.

A further assay concerns the target T7, human endogenous C5a (human, UniProt P01031 678-751, limits assumed).
T7 construct: Endogenous human C5a; also called eC5a
T7 sequence: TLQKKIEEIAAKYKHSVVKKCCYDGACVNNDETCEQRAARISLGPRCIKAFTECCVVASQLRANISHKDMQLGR
The assay can be described thus: SPR (Biacore T200), antibody on CM5 chip, antigen 0-10 nM. As for the experimental part:
(§1) The affinities for eC5a and c5 at various concentrations were measured. […] The concentrations of 0.625 and 0 nM were repeated once. Using the SPR technology, the association and dissociation rates were measured, and binding affinity was determined.
Background: SPR reads the build-up and loss of mass on a sensor chip optically.

Assay [6] concerns the target T8, native full-length human complement component C5 (human, UniProt P01031 19-673; P01031 678-1676).
T8 construct: mature; The native protein has two disulfide-linked chains (alpha and beta) made from one precursor; also called human native C5
The assay is described as follows: ELISA, plate coated with human native C5, full-length antibody titrated, OD410.

Assay [7] addresses T8, native full-length human complement …. The assay is described as follows: SPR (Biacore T200), antibody on CM5 chip, antigen 0-10 nM; SPR (Biacore T200), Cab05-IgG4 on CM5 chip, C5 at 0-10 nM: no signal, given only as a lower bound on Kd. As for the experimental part:
as §1

Assay [8] addresses T3, C5a-T33A. The assay is described as follows: ELISA on the coated C5a protein, antibody titrated, OD410.
For assay [9], the target named is T5, C5a-R40A. The assay is described as above.
Assay [10] concerns the target T6, C5a-Q36A. The assay is described as above.

T8 sequence (P01031 19-673 limits assumed, one chain of several): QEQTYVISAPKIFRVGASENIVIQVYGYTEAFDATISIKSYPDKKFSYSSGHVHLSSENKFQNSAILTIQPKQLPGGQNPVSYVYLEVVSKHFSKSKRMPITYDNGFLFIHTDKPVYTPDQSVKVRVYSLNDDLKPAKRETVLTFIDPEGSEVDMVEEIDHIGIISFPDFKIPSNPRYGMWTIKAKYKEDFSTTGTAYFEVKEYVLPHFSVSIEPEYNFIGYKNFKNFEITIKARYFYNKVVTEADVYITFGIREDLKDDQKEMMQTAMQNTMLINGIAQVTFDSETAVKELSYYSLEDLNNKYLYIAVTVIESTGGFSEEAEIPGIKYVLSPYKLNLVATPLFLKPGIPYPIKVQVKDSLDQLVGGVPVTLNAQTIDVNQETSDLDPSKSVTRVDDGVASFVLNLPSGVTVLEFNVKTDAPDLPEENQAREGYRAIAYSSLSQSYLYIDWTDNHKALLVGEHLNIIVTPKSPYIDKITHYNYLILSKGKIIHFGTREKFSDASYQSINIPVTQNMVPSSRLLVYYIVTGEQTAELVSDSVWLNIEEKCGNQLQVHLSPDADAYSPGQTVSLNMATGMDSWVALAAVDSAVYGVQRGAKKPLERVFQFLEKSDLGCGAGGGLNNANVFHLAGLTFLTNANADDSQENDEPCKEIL
Protocol for human recombinant C5a: Monoclonal scFv antibodies were selected and subjected to ligand binding assays. The binding assay was designed to identify scFv antibodies that bound human recombinant C5a or endogenous C5a. Briefly, a 96-well plate was coated with human rC5a or eC5a in PBS at 0.1 µg/well and left overnight at 4° C. Before loading the scFv antibodies, the plates were washed with TBST, blocked for 1-2 hours at 37° C. using 5% milk and washed again with TBST. Each scFv sample was first diluted to 10 µg/mL, and 150 µL was added to the first row of wells. The 10 µg/mL scFv samples were then serially diluted at a 1:3 ratio and added to the remaining wells. After incubating for 1 hour at 37° C., followed by washing with TBST 6 times, 100µl of the primary antibody and secondary antibody mixture (mouse anti-flag (1:2500) and anti-mouse FC-AP (1:2000)) was added to each well. After incubation for 1 hour under 37° C., the plate was washed 3 times using TBST. pNPP was then added at 50 µL/well and incubated for 10-20 minutes at 37° C. 50 µL 3 M NaOH was used to stop the reaction. The ELISA results (OD410) were then analyzed and the binding curves were generated by PRISM.

B1: Cab05 scFv (scFv, V domains shown)
VH: EMQLVESGGGLVQPGGSLRLSCAASGFTFSDYYMQWVRQAPGKGPEWVGLIRNKAVGGTTQYAASVKGRFTISRDDSKNSVYLQMNSLKTEDTAVYYCVSRAGPPGLSWGQGVLVTVSS
VL: DIVMTQSPLSLPVTPGEPASISCRSSQSLLASDGYNYIDWYLQKPGQSPQLLIYGGSNRASGVPDRFSGSGSGTDFTLKISRVEAEDVGVYFCLQHRALPPTFGQGTKLEIK
notes: scFv
For B1, the “ROS IC50” value in assay [1] and in assay [2] was 1.56 nM each time. Also, the EC50 (read off the curve) (as a rule, the concentration at which the effect is half-maximal) with human recombinant C5a was approximately 0.03 µg/mL.

B2: Cab44-IgG1 (antibody, V domains shown)
VH: EVQLVESGGGLVQPGGSLRLSCAASGFTFSNYYIQWVRQAPGKGPEWVGLIRNKAIGETTEFAASVKGRFTISRDDSKNSVYLQMNSLKTEDTAVYYCAGRLGPPGLTWGQGVLVTVSS
VL: DIVMTQSPLSLPVTPGEPASISCRSSQSLLATDGYEYLDWYLQKPGQSPQLLIYGASNRASGVPDRFSGSGSGTDFTLKISRVEAEDVGVYYCLQHKALPPTFGQGTKLEIK
notes: Full-length human IgG1
As for B2, the “ROS IC50” value in [1] worked out at 0.51 nM. The binding result with C5a-T33A [3], with C5a-E32A, with C5a-R40A [4] and with C5a-Q36A [5] was “binds” each time.

B3: Cab05-IgG4 (antibody, V domains shown)
VH: EMQLVESGGGLVQPGGSLRLSCAASGFTFSDYYMQWVRQAPGKGPEWVGLIRNKAVGGTTQYAASVKGRFTISRDDSKNSVYLQMNSLKTEDTAVYYCVSRAGPPGLSWGQGVLVTVSS
VL: DIVMTQSPLSLPVTPGEPASISCRSSQSLLASDGYNYIDWYLQKPGQSPQLLIYGGSNRASGVPDRFSGSGSGTDFTLKISRVEAEDVGVYFCLQHRALPPTFGQGTKLEIK
notes: Full-length human IgG4 with a human kappa or lambda light chain constant domain
In the case of B3, in the assay with human endogenous C5a, the Kd (in general, the free concentration of one partner at which half of the binding sites on the other are occupied at equilibrium, for simple one-to-one binding) stood at 0.105 nM; the koff – broadly, the first-order rate constant of dissociation – turned out to be 4.22e-05 s⁻¹; the kon (usually the rate constant with which the complex forms) turned out to be 402000 M⁻¹ s⁻¹. Besides, in assay [6], the “EC50 (read off the curve)” value was approximately 0.03 µg/mL. Moreover, the Kd in [7] was more than 100 nM.

B4: Cab45-IgG1 (antibody, V domains shown)
VH: EVQLVESGGGLVQPGGSLRLSCAASGFTFSDYYIQWVRQAPGKGPEWVGLIRNKAVGGTTTYAASVKGRFTISRDDSKNSAYLQMNSLKTEDTAVYFCVSRAGPPGLSWGQGVLVTVSS
VL: DIVMTQSPLSLPVTPGEPASISCRSSQNLLATDGYTYLDWYLQKPGQSPQLLIYGGSKRASGVPDRFSGSGSGTDFTLKISRVEAEDVGVYYCLQHRALPPTFGQGTKLEIK
notes: Full-length human IgG1
As to B4, in assay [1], the “ROS IC50” value was 0.64 nM. Moreover, the binding result with C5a-T33A [8], with C5a-R40A [9] and in the assay with C5a-Q36A [10] was “binds” each time.
